The supplement of paper PMC9112550, “Optimization of the antimicrobial peptide Bac7 by deep mutational scanning” (BMC Biology, 2022)

system: Escherichia coli TOP10; assay: shrunken log2 fold change of peptide-encoding DNA abundance (4.5 h post-induction vs induction); higher = less antimicrobial activity (less host growth inhibition); details: time post-induction: 4.5 h; library: site-saturation at positions 5, 18, 19, 20
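Note: peptides expressed intracellularly from a pBAD plasmid library in pooled LB shake-flask culture, induced with 0.3% L-arabinose, DNA abundance read by NGS, three biological replicates, DESeq2 with apeglm shrinkage.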

Row | Sequence | shrunken log2 fold change
1 | RRIRIRPPRLPRPRPRPPREPRP | 0.535
2 | RRIRSRPPRLPRPRPRPKTKPRP | 0.000308
3 | RRIRKRPPRLPRPRPRPWWQPRP | 0.0795
4 | RRIRVRPPRLPRPRPRPKDHPRP | -0.308
5 | RRIRTRPPRLPRPRPRPVGIPRP | -0.0568
6 | RRIRARPPRLPRPRPRPHAPPRP | 0.54
7 | RRIRWRPPRLPRPRPRPYNIPRP | -0.243
8 | RRIRHRPPRLPRPRPRPQIEPRP | -0.24
9 | RRIRWRPPRLPRPRPRPFWIPRP | 0.0876
10 | RRIRYRPPRLPRPRPRPWCIPRP | 0.0404
11 | RRIRLRPPRLPRPRPRPWGWPRP | 0.264
12 | RRIRMRPPRLPRPRPRPMVNPRP | -0.254
13 | RRIRERPPRLPRPRPRPAYFPRP | 0.019
14 | RRIRMRPPRLPRPRPRPRTMPRP | 0.926
15 | RRIRCRPPRLPRPRPRPMAVPRP | 0.0112
16 | RRIRFRPPRLPRPRPRPMIHPRP | -0.0677
17 | RRIRKRPPRLPRPRPRPYSAPRP | -0.134
18 | RRIRLRPPRLPRPRPRPKVHPRP | -0.106
19 | RRIRQRPPRLPRPRPRPIITPRP | -1.01
20 | RRIRSRPPRLPRPRPRPHEHPRP | 0.113
21 | RRIRKRPPRLPRPRPRPFFWPRP | 1.09
22 | RRIRERPPRLPRPRPRPCALPRP | -0.319
23 | RRIRKRPPRLPRPRPRPRWDPRP | 0.118
24 | RRIRPRPPRLPRPRPRPFQGPRP | -0.0115
25 | RRIRCRPPRLPRPRPRPRKVPRP | 0.196

Row | Sequence | shrunken log2 fold change
26 | RRIRTRPPRLPRPRPRPVTHPRP | -0.0683
27 | RRIRNRPPRLPRPRPRPYVCPRP | -0.363
28 | RRIRQRPPRLPRPRPRPHIPPRP | -0.0245
29 | RRIRYRPPRLPRPRPRPEKIPRP | 0.0147
30 | RRIRQRPPRLPRPRPRPSFWPRP | 0.0712
31 | RRIRQRPPRLPRPRPRPVMCPRP | -0.119
32 | RRIRGRPPRLPRPRPRPCDMPRP | 0.22
33 | RRIRQRPPRLPRPRPRPHRDPRP | -0.322
34 | RRIRRRPPRLPRPRPRPPLMPRP | 0.708
35 | RRIRHRPPRLPRPRPRPPYPPRP | -0.0246
36 | RRIRWRPPRLPRPRPRPAMHPRP | 0.341
37 | RRIRCRPPRLPRPRPRPCLKPRP | -0.277
38 | RRIRLRPPRLPRPRPRPPAWPRP | 0.98
39 | RRIRVRPPRLPRPRPRPDHCPRP | -0.146
40 | RRIRMRPPRLPRPRPRPISRPRP | 0.074
41 | RRIRLRPPRLPRPRPRPFPVPRP | 0.11
42 | RRIRTRPPRLPRPRPRPRCFPRP | 0.204
43 | RRIRLRPPRLPRPRPRPYLSPRP | -0.0116
44 | RRIRIRPPRLPRPRPRPENYPRP | -0.405
45 | RRIRHRPPRLPRPRPRPQELPRP | -0.122
46 | RRIRVRPPRLPRPRPRPCINPRP | 0.0189
47 | RRIRCRPPRLPRPRPRPSIWPRP | -0.342
48 | RRIRERPPRLPRPRPRPCYSPRP | -0.704
49 | RRIRIRPPRLPRPRPRPAEIPRP | -0.484
50 | RRIRWRPPRLPRPRPRPWLCPRP | -0.0206

Row | Sequence | shrunken log2 fold change
51 | RRIRMRPPRLPRPRPRPNAGPRP | 0.416
52 | RRIRYRPPRLPRPRPRPFQAPRP | -0.464
53 | RRIRCRPPRLPRPRPRPAWYPRP | -0.0055
54 | RRIRSRPPRLPRPRPRPLKDPRP | -0.484
55 | RRIRKRPPRLPRPRPRPLEHPRP | 0.156
56 | RRIRWRPPRLPRPRPRPPWTPRP | 0.688
57 | RRIRMRPPRLPRPRPRPACHPRP | 0.151
58 | RRIRERPPRLPRPRPRPDFMPRP | 0.0144
59 | RRIRGRPPRLPRPRPRPKIWPRP | 0.64
60 | RRIRKRPPRLPRPRPRPPQAPRP | 0.0481
61 | RRIRLRPPRLPRPRPRPNTVPRP | -0.0627
62 | RRIRGRPPRLPRPRPRPRLLPRP | 0.908
63 | RRIRNRPPRLPRPRPRPWCTPRP | -0.205
64 | RRIRDRPPRLPRPRPRPPLCPRP | 0.223
65 | RRIRARPPRLPRPRPRPTCWPRP | 0.651
66 | RRIRHRPPRLPRPRPRPDKDPRP | -0.44
67 | RRIRPRPPRLPRPRPRPWWPPRP | 0.165
68 | RRIRQRPPRLPRPRPRPYDSPRP | -0.00804
69 | RRIRPRPPRLPRPRPRPETYPRP | -0.0102
70 | RRIRERPPRLPRPRPRPNAKPRP | -0.134
71 | RRIRWRPPRLPRPRPRPGDGPRP | 0.881
72 | RRIRMRPPRLPRPRPRPAIFPRP | 0.243
73 | RRIRCRPPRLPRPRPRPVGDPRP | 0.551
74 | RRIRWRPPRLPRPRPRPFDGPRP | -0.0363
75 | RRIRHRPPRLPRPRPRPCVHPRP | -0.00151

Row | Sequence | shrunken log2 fold change
76 | RRIRRRPPRLPRPRPRPVMLPRP | -0.0342
77 | RRIRSRPPRLPRPRPRPCALPRP | -0.242
78 | RRIRARPPRLPRPRPRPMHAPRP | 0.409
79 | RRIRLRPPRLPRPRPRPCVTPRP | -0.498
80 | RRIRIRPPRLPRPRPRPGGFPRP | 0.179
81 | RRIRFRPPRLPRPRPRPVFMPRP | -0.0805
82 | RRIRKRPPRLPRPRPRPTFMPRP | 0.189
83 | RRIRHRPPRLPRPRPRPPPTPRP | 0.766
84 | RRIRYRPPRLPRPRPRPRRIPRP | 0.014
85 | RRIRTRPPRLPRPRPRPNVVPRP | -0.0363
86 | RRIRTRPPRLPRPRPRPGMGPRP | 0.104
87 | RRIRWRPPRLPRPRPRPHPAPRP | 0.35
88 | RRIRKRPPRLPRPRPRPPDLPRP | 0.444
89 | RRIRRRPPRLPRPRPRPSSIPRP | -0.485
90 | RRIRFRPPRLPRPRPRPNNLPRP | -0.12
91 | RRIRYRPPRLPRPRPRPHEEPRP | -0.018
92 | RRIRCRPPRLPRPRPRPLWHPRP | -0.091
93 | RRIRFRPPRLPRPRPRPHYKPRP | -0.408
94 | RRIRIRPPRLPRPRPRPPTDPRP | 1.33
95 | RRIRRRPPRLPRPRPRPRDRPRP | 0.713
96 | RRIRTRPPRLPRPRPRPVAQPRP | 0.26
97 | RRIRFRPPRLPRPRPRPGRGPRP | 0.607
98 | RRIRGRPPRLPRPRPRPKKRPRP | 0.817
99 | RRIRIRPPRLPRPRPRPTCNPRP | -0.313
100 | RRIRIRPPRLPRPRPRPMGHPRP | -0.174

Row | Sequence | shrunken log2 fold change
101 | RRIRKRPPRLPRPRPRPFFMPRP | 0.112
102 | RRIRHRPPRLPRPRPRPNPCPRP | -0.132
103 | RRIRMRPPRLPRPRPRPRPYPRP | 0.126
104 | RRIRYRPPRLPRPRPRPAMYPRP | -1.14
105 | RRIRMRPPRLPRPRPRPATTPRP | 0.538
106 | RRIRSRPPRLPRPRPRPKIVPRP | -0.265
107 | RRIRWRPPRLPRPRPRPMNTPRP | -0.28
108 | RRIRFRPPRLPRPRPRPQLCPRP | -0.0465
109 | RRIRHRPPRLPRPRPRPPQWPRP | 0.0657
110 | RRIRQRPPRLPRPRPRPPFRPRP | 0.14
111 | RRIRLRPPRLPRPRPRPKIHPRP | -0.312
112 | RRIRLRPPRLPRPRPRPLCCPRP | -0.146
113 | RRIRNRPPRLPRPRPRPYSLPRP | -0.965
114 | RRIRERPPRLPRPRPRPHQPPRP | 0.202
115 | RRIRVRPPRLPRPRPRPVRPPRP | 0.555
116 | RRIRGRPPRLPRPRPRPFVNPRP | -0.0813
117 | RRIRRRPPRLPRPRPRPWHTPRP | -0.456
118 | RRIRRRPPRLPRPRPRPLMFPRP | 0.0336
119 | RRIRSRPPRLPRPRPRPHMTPRP | -0.384
120 | RRIRARPPRLPRPRPRPGFEPRP | 0.735
121 | RRIRARPPRLPRPRPRPAFDPRP | 1
122 | RRIRMRPPRLPRPRPRPGPAPRP | 1.71
123 | RRIRFRPPRLPRPRPRPKVSPRP | 0.00612
124 | RRIRIRPPRLPRPRPRPMLFPRP | -0.328
125 | RRIRRRPPRLPRPRPRPPTYPRP | 0.0139

Row | Sequence | shrunken log2 fold change
126 | RRIRYRPPRLPRPRPRPIFTPRP | -0.212
127 | RRIRVRPPRLPRPRPRPVRVPRP | 0.905
128 | RRIRDRPPRLPRPRPRPEYDPRP | 0.00968
129 | RRIRARPPRLPRPRPRPPKHPRP | 0.472
130 | RRIRDRPPRLPRPRPRPKVDPRP | -0.118
131 | RRIRWRPPRLPRPRPRPYSNPRP | -0.2
132 | RRIRLRPPRLPRPRPRPPVCPRP | 0.124
133 | RRIRMRPPRLPRPRPRPANFPRP | -0.000946
134 | RRIRYRPPRLPRPRPRPKIYPRP | -0.884
135 | RRIRPRPPRLPRPRPRPLPGPRP | 0.02
136 | RRIRDRPPRLPRPRPRPEVDPRP | 0.00961
137 | RRIRKRPPRLPRPRPRPLVCPRP | 0.191
138 | RRIRARPPRLPRPRPRPDANPRP | 0.275
139 | RRIRMRPPRLPRPRPRPPSLPRP | 0.619
140 | RRIRMRPPRLPRPRPRPQCVPRP | 0.039
141 | RRIRIRPPRLPRPRPRPDQTPRP | 0.000407
142 | RRIRFRPPRLPRPRPRPIINPRP | -0.869
143 | RRIRWRPPRLPRPRPRPSDWPRP | 0.12
144 | RRIRGRPPRLPRPRPRPDLTPRP | 0.219
145 | RRIRMRPPRLPRPRPRPYNWPRP | -0.337
146 | RRIRKRPPRLPRPRPRPQAHPRP | 0.266
147 | RRIRYRPPRLPRPRPRPENDPRP | -0.342
148 | RRIRMRPPRLPRPRPRPTPTPRP | 2
149 | RRIRLRPPRLPRPRPRPVWEPRP | 0.0556
150 | RRIRKRPPRLPRPRPRPFLRPRP | 0.13
